# Residue numbers refer to the chain shown, from its start. Numbers in names are those of the source.
# B1: L41A CXCR4: CXCR4 point mutant L41A (protein)
# chain: MEGISIYTSDNYTEEMGSGDYDSMKEPCFREENANFNKIFAPTIYSIIFLTGIVGNGLVILVMGYQKKLRSMTDKYRLHLSVADLLFVITLPFWAVDAVANWYFGNFLCKAVHVIYTVNLYSSVLILAFISLDRYLAIVHATNSQRPRKLLAEKVVYVGVWIPALLLTIPDFIFANVSEADDRYICDRFYPNDLWVVVFQFQHIMVGLILPGIVILSCYCIIISKLSHSKGHQKRKALKTTVILILAFFACWLPYYIGISIDSFILLEIIKQGCEFENTVHKWISITEALAFFHCCLNPILYAFLGAKFKTSAQHALTSVSRGSSLKILSKGKRGGHSSVSTESESSSFHSS
# B2: CLdes: CXCR4 variant combining the H113N mutation with the Cdes2 design (protein)
# chain: B1 chain with N37A, A41L, Y45F, H113N, S178F, D181Q, I185V, S285M
# modifications: CLdes
# notes: CXCR4 variant combining the H113N mutation with the Cdes2 design
# B3: Cdes1: first-generation combinatorial design CXCR4 receptor variant with binding hotspot motif at TM1/7 interface (protein)
# chain: B1 chain with N37A, A41L, Y45F, S285M
# modifications: Cdes1
# B4: Cdes2: second-generation combinatorial design CXCR4 variant combining the 2 designed binding hotspot motifs (protein)
# chain: B1 chain with N37A, A41L, Y45F, S178F, D181Q, I185V, S285M
# modifications: Cdes2
# B5: Ldes: CXCR4 variant assembled from activating point mutations on TM1, TM3 and ECL2 of the point mutant library (protein)
# chain: B1 chain with A41I, H113N, S178A
# modifications: Ldes
# Key:
# [1] = target: T1, CXCR4 (Homo sapiens, UniProt P61073, L41A); assay: Calcium mobilization assay in transfected HEK 293T cells; type: cell-based; details: peptide-induced, point mutation, FIG. 15A
# T1 construct: WT CXCR4 with an N-terminal 3×HA-tag, Gβ3-WT, and GNA15 sub-cloned into pcDNA3.1+ were obtained from the cDNA Resource Center; host or cells: HEK 293T
# Protocol: (§1) 40,000 HEK 293T cells were transiently transfected with 50 ng HA3-CXCR4, 10 ng GNA15 in pcDNA3.1+. To equalize receptor surface expression, 75 ng of HA3-CXCR4 for the Cdes2 Design variant. Cells were first seeded in 100 uL DMEM (Gibco, ref: 41965-039) 10% FBS in a black-walled, clear-bottom 96-well plate coated with poly-lysine (Sigma, P6407-5MG). Directly after cell loading, 50 uL of the mixture containing 0.5 μL Lipofectamine 2000 (Invitrogen, ref: 11668-019) and the DNA was added on top of the cells. The cells were then left to incubate at 37° C., 5% CO2, 95% relative humidity for 20 h, after which, media was refreshed with 150 uL DMEM+10% FBS. Cells were assayed 48 h post-transfection. Cells were washed with 200 μL FLIPR6 buffer (HBSS+20 mM HEPES, pH 7.4), then incubated at 37° C., 5% CO2, 95% relative humidity for 2 h in 200 μL dye buffer according to manufacturer's protocol. Just before the assay, 5× concentrated peptide solutions were prepared in FLIPR6 buffer in a V-bottom 96-well plate. After incubation, peptide solutions were added at a rate of 16 μL/s after 30 s and fluorescence changes were monitored for 90 s after addition using microplate reader FlexStation3 (Molecular Devices). The maximum response after correction by the mock-transfected condition was averaged from three replicates. […]
# [2] = system: CXCR4; assay: Gαi dissociation BRET (Gi activation) in transfected HEK 293T cells; type: cell-based, human; details: for enhanced potency in G-coupling (Gi): designed receptor vs WT CXCR4 scaffold, against WT CXCL12 peptide
# Protocol: (§2) 40,000 HEK 293T cells were transiently transfected with HA3-CXCR4, Gαi1-91-Rluc8, Gβ3-WT and Gγ9-GFP2 in pcDNA3.1+ at a ratio of 10:1:10:5 respectively. Cells were first seeded in 100 μL DMEM 10% FBS in a poly-lysine coated, white-walled, white-bottom 96-well plate. Directly after cell loading, 50 μL of the mixture containing Lipofectamine 2000 and the DNA was added on top of the cells. The cells were then left to incubate at 37° C., 5% CO2, 95% relative humidity for 20 h, after which, 150 μL media was refreshed. Cells were assayed 48 h post-transfection. Cells were washed with 150 μL PBS, then 40 μL BRET buffer (HBSS, 0.2% Glucose) was added to each well. Coelenterazine 400a was first added at a final concentration of 2.5 μM and BRET ratios were measured once using Mithras^2 LB 943 plate reader. After the first measurement, […] agonist solution was added to each well and BRET ratios were measured for another 30 min using Mithras^2 LB 943 plate reader. Mock-transfected controls were subtracted from the data. Maximum values were then plotted against selected concentrations and fitted to a sigmoidal curve. (n=3, SD plotted)
# [3] = target: T2, CXCR4 (Homo sapiens, UniProt P61073, N37A/S285M/Y45F); assay: as above; type: cell-based; details: HEK cells; cell based assays reporting Gi activation and Ca2+ mobilization
# T2 construct: WT CXCR4 with an N-terminal 3×HA-tag, Gβ3-WT, and GNA15 sub-cloned into pcDNA3.1+ were obtained from the cDNA Resource Center; host or cells: HEK 293T
# Protocol: as §2
# [4] = system: CXCR4; assay: Calcium mobilization assay in transfected HEK 293T cells; type: cell-based, human; details: designed receptor vs WT CXCR4, CXCL12-derived peptide, HEK cells
# Protocol: as §1
# T2 sequence (P61073 whole entry N37A/Y45F/S285M): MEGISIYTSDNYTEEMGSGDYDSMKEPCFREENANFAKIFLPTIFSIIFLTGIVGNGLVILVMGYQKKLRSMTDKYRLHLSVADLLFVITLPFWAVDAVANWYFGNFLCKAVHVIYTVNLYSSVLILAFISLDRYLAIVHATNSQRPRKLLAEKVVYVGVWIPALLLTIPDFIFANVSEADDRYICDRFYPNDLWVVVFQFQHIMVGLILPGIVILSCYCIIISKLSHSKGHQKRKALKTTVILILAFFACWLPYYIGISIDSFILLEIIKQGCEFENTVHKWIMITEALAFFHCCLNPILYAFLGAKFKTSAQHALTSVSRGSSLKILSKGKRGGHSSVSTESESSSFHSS
molecule,measurement,setting,value
B1,calcium release,[1],Enhanced
B2,enhanced potency in G-coupling (Gi),[2],more than 9 fold over WT
B3,sensitivity to CXCL12,[3],enhanced sensitivity
B4,enhanced potency in calcium mobilization,[4],3.1 fold over WT
same,enhanced potency in G-coupling (Gi),[2],3.2 fold over WT
B5,enhanced potency in G-coupling (Gi),[2],~11 fold over WT
same,higher Gi efficacy,"[2]; designed receptor vs starting CXCR4 WT scaffold, WT CXCL12 peptide",120%

# Reference: US20250210128A1, “COMPUTER-IMPLEMENTED DESIGN OF PEPTIDE:RECEPTOR SIGNALING COMPLEXES FOR ENHANCED CHEMOTAXIS” (Ecole Polytechnique Federale de Lausanne (EPFL), priority 2022, published 2025)
